According to patent CN112552406A (WUJIANG NOVOPROTEIN SCIENT INC, dated 2021):

T1: 人CD73 on SK-OV-3细胞 (人卵巢腺癌细胞) (human, UniProt P21589 27-549)
T1 construct: whole, on cells; CD73-positive human cell line; also called SK-OV-3细胞上CD73; 人CD73阳性细胞
T1 sequence (looked up): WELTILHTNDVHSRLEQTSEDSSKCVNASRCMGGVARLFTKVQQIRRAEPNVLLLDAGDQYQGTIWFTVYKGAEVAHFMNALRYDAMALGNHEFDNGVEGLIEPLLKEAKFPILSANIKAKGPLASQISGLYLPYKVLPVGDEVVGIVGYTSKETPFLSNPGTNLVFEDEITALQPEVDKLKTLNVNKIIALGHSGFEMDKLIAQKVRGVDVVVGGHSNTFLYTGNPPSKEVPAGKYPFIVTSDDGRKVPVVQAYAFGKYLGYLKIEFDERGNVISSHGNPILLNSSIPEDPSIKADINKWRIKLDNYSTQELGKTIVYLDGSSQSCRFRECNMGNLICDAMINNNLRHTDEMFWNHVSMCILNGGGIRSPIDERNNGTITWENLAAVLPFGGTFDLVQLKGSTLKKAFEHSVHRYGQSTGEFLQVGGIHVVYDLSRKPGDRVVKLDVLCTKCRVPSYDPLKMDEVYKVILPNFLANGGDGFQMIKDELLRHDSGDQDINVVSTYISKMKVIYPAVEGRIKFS

T2: 猴CD73全长 on CHOK1-cynoCD73细胞 (猴 (cyno), UniProt A0A2K5V5U7 27-549)
T2 sequence: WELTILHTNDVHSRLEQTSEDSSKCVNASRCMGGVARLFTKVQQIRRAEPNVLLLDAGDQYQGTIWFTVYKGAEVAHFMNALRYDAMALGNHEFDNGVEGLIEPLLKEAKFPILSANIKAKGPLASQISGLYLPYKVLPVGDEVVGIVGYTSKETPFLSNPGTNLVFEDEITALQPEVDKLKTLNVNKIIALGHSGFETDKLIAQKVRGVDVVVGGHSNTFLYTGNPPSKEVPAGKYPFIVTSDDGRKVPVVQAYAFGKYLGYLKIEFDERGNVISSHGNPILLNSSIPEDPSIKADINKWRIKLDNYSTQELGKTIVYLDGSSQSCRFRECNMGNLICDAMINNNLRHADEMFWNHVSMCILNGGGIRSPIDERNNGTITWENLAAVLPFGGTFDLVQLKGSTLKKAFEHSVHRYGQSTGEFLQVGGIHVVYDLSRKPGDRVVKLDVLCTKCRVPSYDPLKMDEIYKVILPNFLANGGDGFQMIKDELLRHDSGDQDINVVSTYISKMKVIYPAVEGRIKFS

T3: 重组猴CD73蛋白 (猴 (monkey; cyno per the cell line name), UniProt A0A2K5V5U7 27-547)
T3 sequence: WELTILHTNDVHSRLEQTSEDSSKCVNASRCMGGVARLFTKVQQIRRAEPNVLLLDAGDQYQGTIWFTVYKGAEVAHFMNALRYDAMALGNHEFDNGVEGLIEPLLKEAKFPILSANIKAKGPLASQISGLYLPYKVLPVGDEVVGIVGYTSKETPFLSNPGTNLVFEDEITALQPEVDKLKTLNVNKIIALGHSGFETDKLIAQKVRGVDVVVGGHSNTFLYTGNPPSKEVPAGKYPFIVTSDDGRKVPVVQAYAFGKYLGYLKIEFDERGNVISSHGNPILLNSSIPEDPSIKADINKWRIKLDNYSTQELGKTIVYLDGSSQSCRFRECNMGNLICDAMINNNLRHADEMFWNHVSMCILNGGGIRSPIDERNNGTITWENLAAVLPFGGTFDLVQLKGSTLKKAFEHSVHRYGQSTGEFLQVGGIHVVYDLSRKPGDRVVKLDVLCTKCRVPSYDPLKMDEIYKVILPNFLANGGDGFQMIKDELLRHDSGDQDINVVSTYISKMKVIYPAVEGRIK

T4: 重组人CD73蛋白 (human, UniProt P21589 27-547)
T4 construct: also called rhCD73; 重组hCD73蛋白
T4 sequence (looked up): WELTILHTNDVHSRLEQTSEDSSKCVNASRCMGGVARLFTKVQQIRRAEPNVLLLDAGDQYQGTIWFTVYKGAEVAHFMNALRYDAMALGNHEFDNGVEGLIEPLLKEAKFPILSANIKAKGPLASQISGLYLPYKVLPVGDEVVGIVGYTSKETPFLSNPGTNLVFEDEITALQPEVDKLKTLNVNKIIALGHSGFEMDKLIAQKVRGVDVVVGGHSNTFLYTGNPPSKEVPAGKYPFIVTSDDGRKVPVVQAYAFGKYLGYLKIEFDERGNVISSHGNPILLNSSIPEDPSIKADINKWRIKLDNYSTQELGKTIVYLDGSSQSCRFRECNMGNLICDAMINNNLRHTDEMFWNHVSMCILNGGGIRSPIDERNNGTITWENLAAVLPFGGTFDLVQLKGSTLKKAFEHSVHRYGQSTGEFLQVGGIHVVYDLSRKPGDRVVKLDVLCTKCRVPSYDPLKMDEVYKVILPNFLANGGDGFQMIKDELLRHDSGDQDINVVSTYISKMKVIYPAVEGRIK


What was measured:
[1] = molecular target: T1, 人CD73 on SK-OV-3细胞 (人卵巢腺癌细胞); assay: flow cytometry on SK-OV-3 cells
[2] = molecular target: T1, 人CD73 on SK-OV-3细胞 (人卵巢腺癌细胞); assay: cell-based or functional assay
[3] = molecular target: T2, 猴CD73全长 on CHOK1-cynoCD73细胞; assay: cell-based or functional assay
[4] = molecular target: T2, 猴CD73全长 on CHOK1-cynoCD73细胞; assay: flow cytometry on CHOK1-cynoCD73 cells, Anti-hFC-APC detection
重组猴CD73蛋白 = molecular target: T3, 重组猴CD73蛋白; assay: ELISA, recombinant monkey CD73 coated at 3μg/ml
[5] = molecular target: T1, 人CD73 on SK-OV-3细胞 (人卵巢腺癌细胞); assay: flow cytometry on SK-OV-3 cells, Anti-hFC-APC detection
重组人CD73蛋白 = molecular target: T4, 重组人CD73蛋白; assay: Biacore (SPR), CQ137 immobilised, CD73 protein 2.5nM-40nM

Row | Binder | binding result [1] | EC50 [4] [ng/mL] | EC50 [5] [ng/mL] | also measured
1 | 人源化CQ137单抗(137-2) (antibody, V domains shown, also called hCQ137) VH: QVQLVQSGAEVKKPGASVKVSCKASGYSFTGYYIHWVRQAPGQGLEWMGRINPYNGATTYNQNFKDRVTMTVDKSTSTAYMELRSLRSDDTAVYYCARFHYGAPDYWGQGTLVTVSS VL: DIQMTQSPSSLSASVGDRVTITCKASQDINTYLTWFQQKPGKAPKSLIYRANILVDGVPSRFSGSGSGTDFTLTISSLQPEDFATYYCLQYDEFPLTFGGGTKVEIKR | binds |  |  | 
2 | 人源化CQ137单抗(137-3) (antibody, V domains shown, also called hCQ137) VH: QVQLVQSGAEVKKPGSSVKVSCKASGYSFTGYYIHWVRQAPGQGLEWMGRINPYNGATTYNQNFKDRVTITVDKSTSTAYMELSSLRSEDTAVYYCARFHYGAPDYWGQGTLVTVSS VL: DIQMTQSPSSLSASVGDRVTITCKASQDINTYLTWYQQKPGKAPKTLIYRANILVDGVPSRFSGSGSGTDFTLTISSLQPEDFATYYCLQYDEFPLTFGGGTKVEIKR | binds |  |  | 
3 | 人源化CQ137单抗(137-1) (antibody, V domains shown, also called hCQ137) VH: QVQLVQSGAEVKKPGASVKVSCKASGYTFTGYYIHWVRQAPGQGLEWMGRINPYNGATTYNQNFKDRVTMTVDKSTSTAYMELRSLRSDDTAVYYCARFHYGAPDYWGQGTLVTVSS VL: DIQMTQSPSSLSASVGDRVTITCKASQDINTYLTWFQQKPGKAPKTLIYRANILVDGVPSRFSGSGSGQDYTLTISSLQPEDFATYYCLQYDEFPLTFGGGTKVEIKR | binds |  |  | 
4 | CQ137抗体蛋白 (人鼠嵌合的抗CD73全长抗体) (antibody, human IgG1, kappa, V domains shown) VH: EVQLQQSGPELVKPGASVKISCKASGYSFTGYYIHWVKQSHVKSLEWIGRINPYNGATTYNQNFKDKASLTVDKSSSTAYMELHSLTSEDSAVYYCARFHYGAPDYWGQGTTLTVSS VL: DILMTQSPSSMYASLGERVTITCKASQDINTYLTWFQQKPGKSPKTLIYRANILVDGVPSRFSGSGSGQDYSLTISSLEFEDMGIYYCLQYDEFPLTFGAGTKLELKR |  | 0.0999 | 0.588 | IC50, SK-OV-3细胞上CD73酶活抑制 (CellTiter-Glo) [2]: 371 ng/mL; IC50, CHOK1-cynoCD73细胞上CD73酶活抑制 (CellTiter-Glo) [3]: 990 ng/mL; EC50 (重组猴CD73蛋白): 217 ng/mL; Kd (重组人CD73蛋白): 0.0865 nM
5 | MEDI-9447 (antibody, V domains shown) VH: EVQLLESGGGLVQPGGSLRLSCAASGFTFSSYAYSWVRQAPGKGLEWVSAISGSGGRTYYADSVKGRFTISRDNSKNTLYLQMNSLRAEDTAVYYCARLGYGRVDEWGRGTLVTVSS VL: QSVLTQPPSASGTPGQRVTISCSGSLSNIGRNPVNWYQQLPGTAPKLLIYLDNLRLSGVPDRFSGSKSGTSASLAISGLQSEDEADYYCATWDDSHPGWTFGGGTKLTVLG |  | 4.12 | 9.63 | 
